The target of the assay is N-terminal Nanoluciferase-tagged p97-N domain (human). The assay can be described thus: FRET or BRET; NanoBRET in p47-knockout U2OS cells: Nanoluciferase-p97-N donor, p47-UBX-HaloTag acceptor, co-transfected with antibody-fragment or p47-FLAG plasmids; compared with scFv-RNase and scFab-RNase controls. For orientation: In BRET a luciferase serves as donor, and the signal depends on an acceptor being close.
N-terminal Nanoluciferase-tagged p97-N domain (human), sequence (P55072 2-806): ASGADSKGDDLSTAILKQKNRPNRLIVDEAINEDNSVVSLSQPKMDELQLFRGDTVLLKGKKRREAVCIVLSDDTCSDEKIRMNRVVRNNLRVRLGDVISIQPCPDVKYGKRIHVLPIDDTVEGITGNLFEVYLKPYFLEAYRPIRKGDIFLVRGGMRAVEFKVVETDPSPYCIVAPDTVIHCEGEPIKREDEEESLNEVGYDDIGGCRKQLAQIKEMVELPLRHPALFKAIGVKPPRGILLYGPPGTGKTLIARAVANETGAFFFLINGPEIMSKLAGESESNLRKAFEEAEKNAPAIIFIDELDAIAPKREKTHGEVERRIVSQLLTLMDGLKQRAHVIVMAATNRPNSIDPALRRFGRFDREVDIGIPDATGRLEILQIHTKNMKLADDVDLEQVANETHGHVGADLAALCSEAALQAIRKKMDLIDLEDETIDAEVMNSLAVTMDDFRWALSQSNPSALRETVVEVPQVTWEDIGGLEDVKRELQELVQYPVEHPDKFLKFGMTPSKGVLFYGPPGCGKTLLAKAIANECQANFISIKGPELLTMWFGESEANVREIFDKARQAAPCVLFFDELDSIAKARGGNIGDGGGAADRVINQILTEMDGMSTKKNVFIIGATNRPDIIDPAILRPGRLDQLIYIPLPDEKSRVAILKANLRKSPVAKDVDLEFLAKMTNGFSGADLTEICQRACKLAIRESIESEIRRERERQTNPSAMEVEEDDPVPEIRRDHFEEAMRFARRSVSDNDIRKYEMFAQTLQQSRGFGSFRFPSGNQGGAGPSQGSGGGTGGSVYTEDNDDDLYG

B1: p47-FLAG (natural protein)
chain: MAAERQEALREFVAVTGAEEDRARFFLESAGWDLQIALASFYEDGGDEDIVTISQATPSSVSRGTAPSDNRVTSFRDLIHDQDEDEEEEEGQRFYAGGSERSGQQIVGPPRKKSPNELVDDLFKGAKEHGAVAVERVTKSPGETSKPRPFAGGGYRLGAAPEEESAYVAGEKRQHSSQDVHVVLKLWKSGFSLDNGELRSYQDPSNAQFLESIRRGEVPAELRRLAHGGQVNLDMEDHRDEDFVKPKGAFKAFTGEGQKLGSTAPQVLSTSSPAQQAENEAKASSSILIDESEPTTNIQIRLADGGRLVQKFNHSHRISDIRLFIVDARPAMAATSFILMTTFPNKELADESQTLKEANLLNAVIVQRLT
As to B1, the reduction of the BRET ratio of the p97-N/p47-UBX pair amounted to 15%.
